Data published in patent US20230312754A1 (published 2023).

T1: human CEACAM5 (R&D Systems #4128-CM-050) (human, UniProt P06731 35-685)
T1 construct: Bought protein; also called hCEACAM-5; Human CEACAM5-His
T1 sequence (looked up): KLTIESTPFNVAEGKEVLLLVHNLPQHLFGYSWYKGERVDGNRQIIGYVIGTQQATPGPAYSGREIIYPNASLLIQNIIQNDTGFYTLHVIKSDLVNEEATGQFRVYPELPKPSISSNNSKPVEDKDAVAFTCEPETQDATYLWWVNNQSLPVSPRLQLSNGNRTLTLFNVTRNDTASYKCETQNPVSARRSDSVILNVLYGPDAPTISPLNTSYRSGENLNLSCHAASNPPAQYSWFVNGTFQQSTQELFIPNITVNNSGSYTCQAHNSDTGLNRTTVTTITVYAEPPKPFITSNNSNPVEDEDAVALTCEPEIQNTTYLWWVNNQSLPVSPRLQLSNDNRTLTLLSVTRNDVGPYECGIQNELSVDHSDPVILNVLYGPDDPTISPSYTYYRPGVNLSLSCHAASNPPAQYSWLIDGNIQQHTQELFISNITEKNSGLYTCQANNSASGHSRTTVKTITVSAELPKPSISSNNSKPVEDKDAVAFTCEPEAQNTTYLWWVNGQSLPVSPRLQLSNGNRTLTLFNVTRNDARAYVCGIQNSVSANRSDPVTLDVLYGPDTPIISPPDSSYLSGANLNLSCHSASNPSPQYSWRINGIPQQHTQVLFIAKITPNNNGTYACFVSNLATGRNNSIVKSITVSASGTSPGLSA

B1: Multi40 (bispecific antibody)
heavy 1: not shown
light: DIQMTQSPSSLSASVGDRVTITCRASQSISSYLNWYQEKPGKAPKLLIYAASSLQSGVPSRFSGSGSGTDFTLTISSLQPEDFATYYCQQSSHGPLLTFGQGTKLEIKRTVAAPSVFIFPPSDEQLKSGTASVVCYLNNFYPREAKVQWKVDNALQSGNSQESVTEQDSKDSTYSLWSTLTLSKADYEKHKVYACEVTHQGLSSPVTKSFNRGEC
heavy 2: EVQLLESGGGLVQPGGSLRLSCAASGFTFSTYGMHWVREAPGKGLEWLSYISGGSSYIFYADSVKGRFTISRDNSKNTLYLQMNSLRAEDTAVYYCARILRGGSGMDLWGQGTLVTVSSASTKGPSVFPLAPSSKSTSGGTAALGCLVKDYFPEPVTVSWNSGALTSGVHTFPAVLQSSGLYSLTSVVEVPSSSLGTQTYICNVNHKPSNTKVDKKVEPKSC
notes: CEACAM5xCD40, Optimized RUBY format; copies: 2 + 2 + 2
B2: AC_05293 (bispecific antibody, V domains shown)
VH 1: EVQLLESGGGLVQPGGSLRLSCAASGFTFSSYAMSWVRQAPGKGLEWVSGIGSYGGGTYYADSVKGRFTISRDNSKNTLYLQMNSLRAEDTAVYYCARYVNFGMDYWGQGTLVTVSS
VL 1: DIQMTQSPSSLSASVGDRVTITCRASQSISSYLNWYQQKPGKAPKLLIYAASSLQSGVPSRFSGSGSGTDFTLTISSLQPEDFATYYCQQYGRNPPTFGQGTKLEIK
VL 2: ELVMTQSPSSLTVTAGEKVTMSCKSSQSLLNSGNQKNYLTWYQQKPGQPPKLLIYWASTRESGVPDRFTGSGSGTDFTLTISSVQAEDLAVYYCQNDYSYPLTFGAGTKLEIK
VH 2: EVQLLEQSGAELVRPGTSVKISCKASGYAFTNYWLGWVKQRPGHGLEWIGDIFPGSGNIHYNEKFKGKATLTADKSSSTAYMQLSSLTFEDSAVYFCARLRNWDEPMDYWGQGTTVTVSS
B3: AC_05300 (bispecific antibody, V domains shown)
VH 1: B2 VH 2
VL 1: B2 VL 2
VL 2: B2 VL 1
VH 2: B2 VH 1

Experiments:
[1] = target: T1, human CEACAM5 (R&D Systems #4128-CM-050); experiment: dual target ELISA: coated hCEACAM-5, detection with biotinylated hCD40-muIg
Procedure: 96-well plates were coated with 0.5 μg/mL antigen, hCEACAM-1 (2244-CM-050, R&D Systems), hCEACAM-5 (4128-CM-050, R&D Systems), hCEACAM-6 (3934-CM-050, R&D Systems) or CEACAM-8 (9639-CM-050, R&D Systems) in PBS over night at 4° C. After washing in PBS/0.05% Tween 20 (PBST), the plates were blocked with PBST, 2% BSA for at least 30 minutes at room temperature before a second round of washing. RUBY bsAbs, diluted in PBST, 0.5% BSA, were then added and allowed to bind for at least 1 hour at room temperature. […] Finally, a final round of washing was performed and bound complexes detected using SuperSignal Pico Luminescent as substrate and luminescence signals were measured using Fluostar Optima.

[2] = target: T2, biotinylated human CD40-mouse Fc (Ancell #504-030) (human, UniProt P25942 21-193, biotinylated); experiment: Octet (BLI), bsAb in solution, captured CD40mFc-biotin, 1:1 fit
T2 construct: Bought protein; also called biotinylated hCD40-muIg; CD40mFc-biotin; not shown: mouse Fc (muIg) part
T2 sequence (P25942 21-193 limits assumed): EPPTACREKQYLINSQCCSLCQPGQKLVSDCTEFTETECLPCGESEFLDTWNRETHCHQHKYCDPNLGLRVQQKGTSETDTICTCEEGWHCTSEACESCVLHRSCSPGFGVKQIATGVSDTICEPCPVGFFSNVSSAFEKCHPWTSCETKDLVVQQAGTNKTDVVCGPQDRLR
Procedure: Kinetic measurements were performed in the Octet RED96 platform using several different setups. […] Monomeric human CD40-His-Avi tag (Acro Biosystems #CD0-H5228), monomeric Human CEACAM5-His (R&D Systems #4128-CM-050) or monomeric Cynomolgus CEACAM5-His (Sino Biological #90891-C08H) were ½ serially diluted in 1× kinetic buffer (Sartorius) starting at 500 nM or 100 nM. Bispecific antibodies were 2 serially diluted starting at 50 nM, 25 nM or 10 nM or 1/1.5 serially diluted starting at 15 nM or 5 nM. Binding kinetics was studied in 1× kinetic buffer where association was allowed for 100 sec, 300 sec or 600 sec followed by dissociation for 100 sec, 300 sec or 3600 sec. Sensor tips were regenerated with 10 mM Glycine pH 1.7. Data generated were referenced by subtracting blank or parallel buffer blank, the baseline was aligned to the y-axis, inter-step correction by alignment against dissociation was performed and the data was smoothed by Savitzky-Golay filter in the data analysis software (v9.0.0.14). The processed data was fitted using a 1:1 Langmuir binding model with R² or X² as a measurement of fitting accuracy.
TABLE 12 Summary of kinetic profiles measured in Octet. Bispecific antibodies in solution (25-0.8 nM, 10-2 or 5-0.7 nM.) interacting with captured CD40mFc-biotin. Association was measured for 300 sec or 600 sec and dissociation was measured for 300 sec or 3600 sec

Row | Binder | binding result [1] | Kd [2] | koff [2] | kon [2]
1 | B1 | binds |  |  | 
2 | B2 |  | 76 nM | 0.00062 s⁻¹ | 8300 M⁻¹ s⁻¹
3 | B3 |  | 8.5 nM | 0.0046 s⁻¹ | 540000 M⁻¹ s⁻¹
